Assay results published in patent US5661001.

Key:
human thrombin (human) = human thrombin (human) (UniProt P00734)

[Cys^33 ]HV1--[Cys^33 ]HV1 dimer
inhibition of α-thrombin digesting Chromozym TH (α-thrombin): 82%
titration against 2.0 nM thrombin in presence of 200 µM D-Val-Leu-Arg-p-nitroanilide: fraction of active molecules (human thrombin (human)): 0.97
